Experimental data taken from patent publication CN112552406A (WUJIANG NOVOPROTEIN SCIENT INC, dated 2021).
Changes are numbered by the printed parent chain.

B1: CQ137抗体蛋白 (人鼠嵌合的抗CD73全长抗体) (antibody, human IgG1, kappa, V domains shown)
VH: EVQLQQSGPELVKPGASVKISCKASGYSFTGYYIHWVKQSHVKSLEWIGRINPYNGATTYNQNFKDKASLTVDKSSSTAYMELHSLTSEDSAVYYCARFHYGAPDYWGQGTTLTVSS
VL: DILMTQSPSSMYASLGERVTITCKASQDINTYLTWFQQKPGKSPKTLIYRANILVDGVPSRFSGSGSGQDYSLTISSLEFEDMGIYYCLQYDEFPLTFGAGTKLELKR
B2: MEDI-9447 (antibody, V domains shown)
VH: EVQLLESGGGLVQPGGSLRLSCAASGFTFSSYAYSWVRQAPGKGLEWVSAISGSGGRTYYADSVKGRFTISRDNSKNTLYLQMNSLRAEDTAVYYCARLGYGRVDEWGRGTLVTVSS
VL: QSVLTQPPSASGTPGQRVTISCSGSLSNIGRNPVNWYQQLPGTAPKLLIYLDNLRLSGVPDRFSGSKSGTSASLAISGLQSEDEADYYCATWDDSHPGWTFGGGTKLTVLG
B3: 人源化CQ137单抗(137-2) (antibody, V domains shown)
VH: QVQLVQSGAEVKKPGASVKVSCKASGYSFTGYYIHWVRQAPGQGLEWMGRINPYNGATTYNQNFKDRVTMTVDKSTSTAYMELRSLRSDDTAVYYCARFHYGAPDYWGQGTLVTVSS
VL: DIQMTQSPSSLSASVGDRVTITCKASQDINTYLTWFQQKPGKAPKSLIYRANILVDGVPSRFSGSGSGTDFTLTISSLQPEDFATYYCLQYDEFPLTFGGGTKVEIKR
notes: also called hCQ137
B4: 人源化CQ137单抗(137-1) (antibody, V domains shown)
VH: B3 VH with S28T
VL: B3 VL with S46T, T69Q, F71Y
notes: also called hCQ137
B5: 人源化CQ137单抗(137-3) (antibody, V domains shown)
VH: B3 VH with A16S, M70I, R84S, D89E
VL: B3 VL with F36Y, S46T
notes: also called hCQ137

Experiments:
[1] = molecular target: T1, 人CD73 on SK-OV-3细胞 (人卵巢腺癌细胞) (human, UniProt P21589 27-549); test: cell-based or functional assay
T1 sequence (looked up): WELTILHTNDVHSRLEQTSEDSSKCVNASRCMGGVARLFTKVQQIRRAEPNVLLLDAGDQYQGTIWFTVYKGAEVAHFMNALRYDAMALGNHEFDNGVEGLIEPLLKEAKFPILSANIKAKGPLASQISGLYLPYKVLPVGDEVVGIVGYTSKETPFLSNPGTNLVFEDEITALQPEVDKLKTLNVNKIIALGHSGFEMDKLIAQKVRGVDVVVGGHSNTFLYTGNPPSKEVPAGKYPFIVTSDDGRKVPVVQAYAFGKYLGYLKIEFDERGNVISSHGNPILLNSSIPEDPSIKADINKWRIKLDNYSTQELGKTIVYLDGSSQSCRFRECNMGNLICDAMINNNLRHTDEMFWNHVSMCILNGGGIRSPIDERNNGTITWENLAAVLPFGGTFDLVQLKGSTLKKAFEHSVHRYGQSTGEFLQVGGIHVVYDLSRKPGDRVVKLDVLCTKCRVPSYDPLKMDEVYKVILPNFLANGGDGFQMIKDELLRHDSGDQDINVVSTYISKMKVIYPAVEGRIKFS

[2] = molecular target: T2, 猴CD73全长 on CHOK1-cynoCD73细胞 (猴 (cyno), UniProt A0A2K5V5U7 27-549); test: cell-based or functional assay
T2 sequence: T1 sequence (looked up) with M199T, T350A, V466I

重组猴CD73蛋白 = molecular target: T3, 重组猴CD73蛋白 (猴 (monkey; cyno per the cell line name), UniProt A0A2K5V5U7 27-547); test: ELISA, recombinant monkey CD73 coated at 3μg/ml
T3 sequence: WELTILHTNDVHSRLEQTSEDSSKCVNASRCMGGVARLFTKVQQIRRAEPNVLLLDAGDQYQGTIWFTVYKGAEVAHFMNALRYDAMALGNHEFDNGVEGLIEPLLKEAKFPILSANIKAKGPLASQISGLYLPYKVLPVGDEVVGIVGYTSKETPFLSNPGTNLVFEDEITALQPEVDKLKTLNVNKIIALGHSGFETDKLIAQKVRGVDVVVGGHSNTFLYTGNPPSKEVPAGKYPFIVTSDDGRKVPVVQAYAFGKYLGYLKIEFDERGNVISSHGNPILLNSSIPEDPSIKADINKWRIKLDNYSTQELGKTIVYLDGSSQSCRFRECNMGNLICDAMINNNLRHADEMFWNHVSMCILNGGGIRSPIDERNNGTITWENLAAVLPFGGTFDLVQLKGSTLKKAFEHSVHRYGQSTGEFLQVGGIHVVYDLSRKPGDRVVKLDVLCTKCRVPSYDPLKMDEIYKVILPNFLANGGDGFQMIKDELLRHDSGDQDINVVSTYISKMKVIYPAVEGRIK

[3] = molecular target: T1, 人CD73 on SK-OV-3细胞 (人卵巢腺癌细胞); test: flow cytometry on SK-OV-3 cells, Anti-hFC-APC detection
重组人CD73蛋白 = molecular target: T4, 重组人CD73蛋白 (human, UniProt P21589 27-547); test: Biacore (SPR), CQ137 immobilised, CD73 protein 2.5nM-40nM
T4 construct: also called rhCD73; 重组hCD73蛋白
T4 sequence (looked up): T3 sequence with T199M, A350T, I466V

[4] = molecular target: T2, 猴CD73全长 on CHOK1-cynoCD73细胞; test: flow cytometry on CHOK1-cynoCD73 cells, Anti-hFC-APC detection
[5] = molecular target: T1, 人CD73 on SK-OV-3细胞 (人卵巢腺癌细胞); test: flow cytometry on SK-OV-3 cells

Row | Binder | EC50 [3] [ng/mL] | EC50 [4] [ng/mL] | binding result [5] | other results
1 | B1 | 0.588 | 0.0999 |  | IC50, SK-OV-3细胞上CD73酶活抑制 (CellTiter-Glo) [1]: 371 ng/mL; IC50, CHOK1-cynoCD73细胞上CD73酶活抑制 (CellTiter-Glo) [2]: 990 ng/mL; EC50 (重组猴CD73蛋白): 217 ng/mL; Kd (重组人CD73蛋白): 0.0865 nM
2 | B2 | 9.63 | 4.12 |  | 
3 | B3 |  |  | binds | 
4 | B4 |  |  | binds | 
5 | B5 |  |  | binds | 
